Source: US20210060185

Assays:
[1] = system: dGvpC (Ana GvpC with SG-AANDENYALAA at the C-terminus, encoded in the acoustic sensor gene for ClpXP)
[2] = system: T1, N-His Ana GvpC with ssrA degradation tag (engineered Anabaena flos-aquae GvpC, ClpXP-sensitive)
T1 sequence: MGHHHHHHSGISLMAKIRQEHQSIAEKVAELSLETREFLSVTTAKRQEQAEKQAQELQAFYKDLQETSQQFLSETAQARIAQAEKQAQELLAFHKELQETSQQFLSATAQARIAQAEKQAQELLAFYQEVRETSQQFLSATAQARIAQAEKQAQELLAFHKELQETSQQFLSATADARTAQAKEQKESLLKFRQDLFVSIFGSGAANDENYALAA

[3] = system: T2, WT N-His-Ana-GvpC
T2 sequence: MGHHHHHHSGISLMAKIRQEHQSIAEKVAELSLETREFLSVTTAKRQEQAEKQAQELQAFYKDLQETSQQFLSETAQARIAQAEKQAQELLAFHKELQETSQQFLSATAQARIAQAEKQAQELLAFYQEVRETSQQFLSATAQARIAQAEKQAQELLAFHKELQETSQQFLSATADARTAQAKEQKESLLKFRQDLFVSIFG

| Substance | nonlinear CNR with ClpXP induction (FIG. 10F) [1] | nonlinear ultrasound contrast in the mouse colon [1] | 50% collapse pressure after ClpXP exposure (FIG. 9D) [2] | degradation on Coomassie-stained SDS-PAGE [2] | hydrostatic collapse midpoint shift (pressurized absorbance spectroscopy) [2] | increase in nonlinear CNR (FIG. 9E) [2] | nonlinear (x-AM) ultrasound contrast enhancement [2] | collapse pressure, ultrasound contrast and SDS-PAGE [3] |
| --- | --- | --- | --- | --- | --- | --- | --- | --- |
| ClpXP of E. coli Nissle 1917 (native, or ClpX and ClpP cloned from the Nissle genome under the pBAD promoter) | FIG. 10F shows a nonlinear CNR increase from 15.9 to 22.6 | Cells induced to express this enzyme showed enhanced nonlinear contrast compared to cells not expressing ClpXP | – | – | – | – | – | – |
| ClpXP in the reconstituted cell-free TX-TL system (purified Flag-ClpXdeltaNLinkedHexamer-His6 and ClpP from the pBEST-ClpP plasmid) | – | – | a reduction of “50% collapse” pressure from about 476 kPa to about 223 kPa | Gel electrophoresis performed after incubating GVSClpXP with this cell-free extract showed significant degradation of the engineered GvpC, compared to a negative control condition in which the extract was pre-treated with a protease inhibitor | a substantial weakening of the GV shell upon ClpX exposure, with the hydrostatic collapse midpoint shifting by nearly 250 kPa | FIG. 9E shows an 860% increase in CNR | a 17 dB enhancement in the nonlinear contrast produced by GVSClpXP at an acoustic pressure of 477 kPa, in response to ClpXP activity | Control GVs containing wild type GvpC showed no sensitivity to ClpXP |
